Target: soluble C-terminally truncated HAP2 ectodomain (HAP2e), residues 23-592, Chlamydomonas reinhardtii (Chlamydomonas reinhardtii) (UniProt A4GRC6)
Assay: SEC-MALS

soluble C-terminally truncated HAP2 ectodomain (HAP2e), residues 23-592, Chlamydomonas reinhardtii (from UniProt A4GRC6 23-592) (domain or fragment)
stoichiometry N: 6
